Measured values reported in IntAct's records for PubMed 31515488.

B1: Low-density lipoprotein receptor class A domain-containing protein 1 (Homo sapiens), Q5T700 (parent)
chain: MNKVFPQGENGYTAAESKAHPGGEAGGGHLCCSRRGACLSASLLLLLATVAALIALVTILGLPSCTPGAQACITLTNRTGFLCHDQRSCIPASGVCDGVRTCTHGEDEDESLCRDVPQSLPHFLVAHCGDPASWIYSDQKCDGTNNCGDCSDELSPVTVCPPCGPGWWRCPSTFFKYCDCIPRHLCRDHVQHCSDWSDEYACPGP
B2: Zinc finger protein 512B (Homo sapiens), Q96KM6 (parent)
chain: MTDPFCVGGRRLPGSSKSGPGKDGSRKEVRLPMLHDPPKMGMPVVRGGQTVPGQAPLCFDPGSPASDKTEGKKKGRPKAENQALRDIPLSLMNDWKDEFKAHSRVKCPNSGCWLEFPSIYGLKYHYQRCQGGAISDRLAFPCPFCEAAFTSKTQLEKHRIWNHMDRPLPASKPGPISRPVTISRPVGVSKPIGVSKPVTIGKPVGVSKPIGISKPVSVGRPMPVTKAIPVTRPVPVTKPVTVSRPMPVTKAMPVTKPITVTKSVPVTKPVPVTKPITVTKLVTVTKPVPVTKPVTVSRPIVVSKPVTVSRPIAISRHTPPCKMVLLTRSENKAPRATGRNSGKKRAADSLDTCPIPPKQARPENGEYGPSSMGQSSAFQLSADTSSGSLSPGSRPSGGMEALKAAGPASPPEEDPERTKHRRKQKTPKKFTGEQPSISGTFGLKGLVKAEDKARVHRSKKQEGPGPEDARKKVPAAPITVSKEAPAPVAHPAPGGPEEQWQRAIHERGEAVCPTCNVVTRKTLVGLKKHMEVCQKLQDALKCQHCRKQFKSKAGLNYHTMAEHSAKPSDAEASEGGEQEERERLRKVLKQMGRLRCPQEGCGAAFSSLMGYQYHQRRCGKPPCEVDSPSFPCTHCGKTYRSKAGHDYHVRSEHTAPPPEEPTDKSPEAEDPLGVERTPSGRVRRTSAQVAVFHLQEIAEDELARDWTKRRMKDDLVPETARLNYTRPGLPTLNPQLLEAWKNEVKEKGHVNCPNDCCEAIYSSVSGLKAHLASCSKGAHLAGKYRCLLCPKEFSSESGVKYHILKTHAENWFRTSADPPPKHRSQDSLVPKKEKKKNLAGGKKRGRKPKERTPEEPVAKLPPRRDDWPPGCRDKGARGSTGRKVGVSKAPEK
B3: Protein LDOC1 (Homo sapiens), O95751 (parent)
chain: MVDELVLLLHALLMRHRALSIENSQLMEQLRLLVCERASLLRQVRPPSCPVPFPETFNGESSRLPEFIVQTASYMLVNENRFCNDAMKVAFLISLLTGEAEEWVVPYIEMDSPILGDYRAFLDEMKQCFGWDDDEDDDDEEEEDDY
partner: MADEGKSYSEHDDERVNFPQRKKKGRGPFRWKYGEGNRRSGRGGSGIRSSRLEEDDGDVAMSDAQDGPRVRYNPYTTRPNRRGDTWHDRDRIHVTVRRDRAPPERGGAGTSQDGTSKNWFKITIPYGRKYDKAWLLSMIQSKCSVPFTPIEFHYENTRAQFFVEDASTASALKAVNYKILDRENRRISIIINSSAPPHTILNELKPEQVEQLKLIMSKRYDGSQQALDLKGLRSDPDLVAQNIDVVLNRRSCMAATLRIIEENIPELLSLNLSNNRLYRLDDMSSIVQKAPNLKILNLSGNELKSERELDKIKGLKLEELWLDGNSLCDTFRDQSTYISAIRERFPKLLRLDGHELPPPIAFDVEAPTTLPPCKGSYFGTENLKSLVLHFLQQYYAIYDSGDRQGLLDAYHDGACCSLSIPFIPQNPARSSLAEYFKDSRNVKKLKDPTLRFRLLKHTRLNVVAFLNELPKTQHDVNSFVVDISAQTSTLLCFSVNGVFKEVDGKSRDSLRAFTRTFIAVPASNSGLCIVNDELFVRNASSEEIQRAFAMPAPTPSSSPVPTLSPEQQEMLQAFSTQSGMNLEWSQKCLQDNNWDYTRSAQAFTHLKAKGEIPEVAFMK
B4: E3 ubiquitin-protein ligase RNF8 (Homo sapiens), O76064 (parent)
chain: MGEPGFFVTGDRAGGRSWCLRRVGMSAGWLLLEDGCEVTVGRGFGVTYQLVSKICPLMISRNHCVLKQNPEGQWTIMDNKSLNGVWLNRARLEPLRVYSIHQGDYIQLGVPLENKENAEYEYEVTEEDWETIYPCLSPKNDQMIEKNKELRTKRKFSLDELAGPGAEGPSNLKSKINKVSCESGQPVKSQGKGEVASTPSDNLDPKLTALEPSKTTGAPIYPGFPKVTEVHHEQKASNSSASQRSLQMFKVTMSRILRLKIQMQEKHEAVMNVKKQTQKGNSKKVVQMEQELQDLQSQLCAEQAQQQARVEQLEKTFQEEEQHLQGLEIAQGEKDLKQQLAQALQEHWALMEELNRSKKDFEAIIQAKNKELEQTKEEKEKMQAQKEEVLSHMNDVLENELQCIICSEYFIEAVTLNCAHSFCSYCINEWMKRKIECPICRKDIKSKTYSLVLDNCINKMVNNLSSEVKERRIVLIRERKAKRLF
partner: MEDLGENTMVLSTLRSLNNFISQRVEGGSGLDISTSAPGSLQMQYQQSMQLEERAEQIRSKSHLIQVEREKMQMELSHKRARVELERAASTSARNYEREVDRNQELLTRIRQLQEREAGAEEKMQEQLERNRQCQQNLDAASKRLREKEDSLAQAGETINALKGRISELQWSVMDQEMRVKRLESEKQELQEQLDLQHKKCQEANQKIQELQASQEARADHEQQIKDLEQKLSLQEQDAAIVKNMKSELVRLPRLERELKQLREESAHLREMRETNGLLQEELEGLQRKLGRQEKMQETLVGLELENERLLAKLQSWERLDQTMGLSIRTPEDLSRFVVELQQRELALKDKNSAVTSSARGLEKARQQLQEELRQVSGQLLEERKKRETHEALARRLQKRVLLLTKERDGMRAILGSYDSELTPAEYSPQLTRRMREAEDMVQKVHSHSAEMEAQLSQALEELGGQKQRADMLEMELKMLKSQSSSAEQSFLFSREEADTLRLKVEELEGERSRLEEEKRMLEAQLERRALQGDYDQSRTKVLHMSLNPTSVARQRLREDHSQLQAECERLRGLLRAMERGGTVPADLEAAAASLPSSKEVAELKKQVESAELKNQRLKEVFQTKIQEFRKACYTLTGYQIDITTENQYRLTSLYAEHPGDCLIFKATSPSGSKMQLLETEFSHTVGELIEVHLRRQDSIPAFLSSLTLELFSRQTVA
B5: Centrosomal protein POC5 (Homo sapiens), Q8NA72 (parent)
chain: MSSDEEKYSLPVVQNDSSRGSSVSSNLQEEYEELLHYAIVTPNIEPCASQSSHPKGELVPDVRISTIHDILHSQGNNSEVRETAIEVGKGCDFHISSHSKTDESSPVLSPRKPSHPVMDFFSSHLLADSSSPATNSSHTDAHEILVSDFLVSDENLQKMENVLDLWSSGLKTNIISELSKWRLNFIDWHRMEMRKEKEKHAAHLKQLCNQINELKELQKTFEISIGRKDEVISSLSHAIGKQKEKIELMRTFFHWRIGHVRARQDVYEGKLADQYYQRTLLKKVWKVWRSVVQKQWKDVVERACQARAEEVCIQISNDYEAKVAMLSGALENAKAEIQRMQHEKEHFEDSMKKAFMRGVCALNLEAMTIFQNRNDAGIDSTNNKKEEYGPGVQGKEHSAHLDPSAPPMPLPVTSPLLPSPPAAVGGASATAVPSAASMTSTRAASASSVHVPVSALGAGSAATAASEEMYVPRVVTSAQQKAGRTITARITGRCDFASKNRISSSLAIMGVSPPMSSVVVEKHHPVTVQTIPQATAAKYPRTIHPESSTSASRSLGTRSAHTQSLTSVHSIKVVD
B6: Dynein light chain 2, cytoplasmic (Homo sapiens), Q96FJ2 (parent)
chain: MSDRKAVIKNADMSEDMQQDAVDCATQAMEKYNIEKDIAAYIKKEFDKKYNPTWHCIVGRNFGSYVTHETKHFIYFYLGQVAILLFKSG

Variants of: B1
Details: with tm190_human TMEM190, Q8WZ59
Sequence of tm190_human TMEM190, Q8WZ59 (Q8WZ59 whole entry): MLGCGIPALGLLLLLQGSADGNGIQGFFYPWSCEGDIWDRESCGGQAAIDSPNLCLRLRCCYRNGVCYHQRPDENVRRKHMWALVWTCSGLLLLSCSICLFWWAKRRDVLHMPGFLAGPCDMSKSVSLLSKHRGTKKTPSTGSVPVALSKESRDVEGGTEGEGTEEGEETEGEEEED

| Variant | effect of a mutation on the interaction |
| --- | --- |
| E108K | with no effect |

Variants of: B1
Details: with tm218_human TMEM218, A2RU14
Sequence of tm218_human TMEM218, A2RU14 (A2RU14 whole entry): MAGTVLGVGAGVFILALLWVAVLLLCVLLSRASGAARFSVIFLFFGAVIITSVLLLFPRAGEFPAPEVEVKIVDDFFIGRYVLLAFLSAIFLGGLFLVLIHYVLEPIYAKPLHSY

| Variant | effect of a mutation on the interaction |
| --- | --- |
| E108K | with no effect |

Variants of: B1
Details: with bni3l_human BNIP3L

| Variant | effect of a mutation on the interaction |
| --- | --- |
| E108K | with no effect |
| G105S | with no effect |

Variants of: B1
Details: with tm147_human TMEM147, Q9BVK8
Sequence of tm147_human TMEM147, Q9BVK8 (Q9BVK8 whole entry): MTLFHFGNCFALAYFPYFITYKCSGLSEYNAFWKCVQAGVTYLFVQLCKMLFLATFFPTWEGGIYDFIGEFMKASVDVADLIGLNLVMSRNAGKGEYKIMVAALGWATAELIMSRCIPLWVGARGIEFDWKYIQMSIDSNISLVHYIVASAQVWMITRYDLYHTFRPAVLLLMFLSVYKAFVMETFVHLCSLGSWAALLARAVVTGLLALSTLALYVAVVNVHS

| Variant | effect of a mutation on the interaction |
| --- | --- |
| E108K | with no effect |
| G105S | with no effect |

Variants of: B1
Details: with mal_human MAL

| Variant | effect of a mutation on the interaction |
| --- | --- |
| E108K | with no effect |
| G105S | with no effect |

Variants of: B1
Details: with mall_human MALL

| Variant | effect of a mutation on the interaction |
| --- | --- |
| S42F | with no effect |

Variants of: B1
Details: with olfm4_human OLFM4, Q6UX06
Sequence of olfm4_human OLFM4, Q6UX06 (Q6UX06 whole entry): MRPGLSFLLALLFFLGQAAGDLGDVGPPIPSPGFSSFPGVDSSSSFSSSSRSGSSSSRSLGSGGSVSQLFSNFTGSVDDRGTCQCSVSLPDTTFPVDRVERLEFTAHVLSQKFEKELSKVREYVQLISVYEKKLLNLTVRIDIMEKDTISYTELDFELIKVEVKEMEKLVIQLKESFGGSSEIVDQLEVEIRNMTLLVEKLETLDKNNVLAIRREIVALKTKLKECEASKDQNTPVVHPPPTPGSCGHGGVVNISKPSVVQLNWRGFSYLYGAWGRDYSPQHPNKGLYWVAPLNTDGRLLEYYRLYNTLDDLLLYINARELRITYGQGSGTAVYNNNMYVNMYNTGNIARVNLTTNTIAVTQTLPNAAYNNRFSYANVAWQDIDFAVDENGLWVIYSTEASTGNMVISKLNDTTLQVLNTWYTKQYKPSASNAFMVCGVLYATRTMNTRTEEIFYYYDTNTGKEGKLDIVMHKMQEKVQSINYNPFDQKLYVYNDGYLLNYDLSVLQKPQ

| Variant | effect of a mutation on the interaction |
| --- | --- |
| S42F | with no effect |

Variants of: B2
Details: with fhl3_human FHL3, Q13643
Sequence of fhl3_human FHL3, Q13643 (Q13643 whole entry): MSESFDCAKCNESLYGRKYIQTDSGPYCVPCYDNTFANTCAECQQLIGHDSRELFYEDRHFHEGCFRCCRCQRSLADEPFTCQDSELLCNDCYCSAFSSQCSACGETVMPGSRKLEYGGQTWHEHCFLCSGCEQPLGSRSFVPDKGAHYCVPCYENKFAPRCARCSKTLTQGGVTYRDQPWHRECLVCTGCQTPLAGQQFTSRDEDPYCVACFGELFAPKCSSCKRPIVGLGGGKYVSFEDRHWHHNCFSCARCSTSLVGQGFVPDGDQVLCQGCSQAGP

| Variant | effect of a mutation on the interaction |
| --- | --- |
| A453T | with no effect |
| A408T | with no effect |

Variants of: B2
Details: with traf1_human TRAF1, Q13077
Sequence of traf1_human TRAF1, Q13077 (Q13077 whole entry): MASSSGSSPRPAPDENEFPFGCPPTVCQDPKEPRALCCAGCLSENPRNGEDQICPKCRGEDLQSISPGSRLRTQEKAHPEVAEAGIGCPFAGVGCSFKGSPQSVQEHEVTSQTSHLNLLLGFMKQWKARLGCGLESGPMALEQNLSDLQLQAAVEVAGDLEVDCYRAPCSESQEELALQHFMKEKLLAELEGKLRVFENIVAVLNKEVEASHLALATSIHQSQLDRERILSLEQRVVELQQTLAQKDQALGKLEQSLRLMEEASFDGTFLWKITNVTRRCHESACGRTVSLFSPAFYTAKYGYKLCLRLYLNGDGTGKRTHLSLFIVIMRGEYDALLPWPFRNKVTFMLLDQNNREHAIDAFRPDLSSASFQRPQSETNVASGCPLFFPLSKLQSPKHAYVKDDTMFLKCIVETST

| Variant | effect of a mutation on the interaction |
| --- | --- |
| A453T | with no effect |
| A408T | with no effect |

Variants of: B3
Details: with nxf1_human NXF1, Q9UBU9

| Variant | effect of a mutation on the interaction |
| --- | --- |
| L12H | disrupting interaction strength |

Variants of: B4
Details: with md1l1_human MAD1L1, Q9Y6D9

| Variant | effect of a mutation on the interaction |
| --- | --- |
| V310L | with no effect |

Variants of: B5
Details: with cetn1_human CETN1, Q12798
Sequence of cetn1_human CETN1, Q12798 (Q12798 whole entry): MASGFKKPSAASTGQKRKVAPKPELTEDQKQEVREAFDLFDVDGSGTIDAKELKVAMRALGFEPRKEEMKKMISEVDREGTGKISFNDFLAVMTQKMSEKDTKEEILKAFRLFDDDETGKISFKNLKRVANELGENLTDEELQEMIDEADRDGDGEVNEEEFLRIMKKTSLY

| Variant | effect of a mutation on the interaction |
| --- | --- |
| D148N | with no effect |
| I175M | with no effect |
| R302K | with no effect |
| A446T | with no effect |
| I85T | with no effect |
| H36R | with no effect |

Variants of: B5
Details: with cetn2_human CETN2, P41208
Sequence of cetn2_human CETN2, P41208 (P41208 whole entry): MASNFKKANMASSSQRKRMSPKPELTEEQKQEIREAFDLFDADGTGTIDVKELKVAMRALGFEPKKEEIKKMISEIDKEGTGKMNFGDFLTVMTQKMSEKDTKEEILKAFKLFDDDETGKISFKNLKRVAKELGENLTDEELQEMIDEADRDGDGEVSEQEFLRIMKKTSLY

| Variant | effect of a mutation on the interaction |
| --- | --- |
| H36R | with no effect |

Variants of: B6
Details: with tha10_human THAP10, Q9P2Z0
Sequence of tha10_human THAP10, Q9P2Z0 (Q9P2Z0 whole entry): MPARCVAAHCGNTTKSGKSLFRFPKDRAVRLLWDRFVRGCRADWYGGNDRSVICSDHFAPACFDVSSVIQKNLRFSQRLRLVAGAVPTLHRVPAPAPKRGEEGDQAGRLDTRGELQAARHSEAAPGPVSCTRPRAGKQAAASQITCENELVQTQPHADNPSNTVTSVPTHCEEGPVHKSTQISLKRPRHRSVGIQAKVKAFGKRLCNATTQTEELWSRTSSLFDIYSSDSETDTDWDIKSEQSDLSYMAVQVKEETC

| Variant | effect of a mutation on the interaction |
| --- | --- |
| N33S | with no effect |
